The results in this text go back to US20260356940 (published 2026).

Positions count from the first letter of the chain named.

The labels stand for the following.
T1: SLAMF6 (human, UniProt Q96DU3)
T1 chain: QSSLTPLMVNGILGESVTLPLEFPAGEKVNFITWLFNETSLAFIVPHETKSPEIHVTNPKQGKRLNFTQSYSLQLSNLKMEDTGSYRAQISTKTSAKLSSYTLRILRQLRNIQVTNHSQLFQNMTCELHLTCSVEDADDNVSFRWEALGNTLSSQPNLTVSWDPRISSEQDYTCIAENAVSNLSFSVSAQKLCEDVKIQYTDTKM

B1: LB-031 (antibody, V domains shown)
VH: EVQLLESGGGLVQPGGSLRLSCAASGFTFGSYYMGWVRQAPGKGLEWVSYISGYSGYTYYADSVKGRFTISRDNSKNTLYLQMNSLRAEDTAVYYCARFSSPAGYPRMDYWGQGTLVTVSS
VL: DIQMTQSPSSLSASVGDHVTITCRASQSISSYLNWYQQKPGKAPKLLIYAASSLQSGVPSRFSGSGSGTDFTLTISSLQPEDFATYYCQQYYTLPTFGQGTKLEIK
B2: LB-116 (antibody, V domains shown)
VH: EVQLLESGGGLVQPGGSLRLSCAASGFTFSYSYMYWVRQAPGKGLEWVSSISSSGGSTSYADSVKGRFTISRDNSKNTLYLQMNSLRAEDTAVYYCARPNVDSYMDYWGQGTLVTVSS
VL: DIQMTQSPSSLSASVGDHVTITCRASQSISSYLNWYQQKPGKAPKLLIYAASSLQSGVPSRFSGSGSGTDFTLTISSLQPEDFATYYCQQSYIYLPFTFGQGTKLEIK
B3: LB-302 (antibody, V domains shown)
VH: EVQLLESGGGLVQPGGSLRLSCAASGFTFGGYGMSWVRQAPGKGLEWVSYIGYGGSYTYYADSVKGRFTISRDNSKNTLYLQMNSLRAEDTAVYYCARDGAGSYGFFDYWGQGTLVTVSS
VL: B2 VL with S91F, I93T, Y94N, L95P, P96L, F97L
B4: LB-032 (antibody, V domains shown)
VH: EVQLLESGGGLVQPGGSLRLSCAASGFTFGSYGMSWVRQAPGKGLEWVSYISYSGSYTYYADSVKGRFTISRDNSKNTLYLQMNSLRAEDTAVYYCARGADYYSVLDYWGQGTLVTVSS
VL: B2 VL with S91F, Y92S, I93T, Y94S, L95P, F97S
B5: LB-20H10 (antibody, V domains shown)
VH: QVQLQQSGAELVRPGTSVKMSCKAAGYTFTNYWIGWVKQRPGHGLEWIGDIYPGGGYTHHNEKFKGKATLTADTSSSTAYMQLSSLTSEDSAIYYCARSVLPGFAYWGQGTLVTVSA
VL: DIVMTQSHKFMSTSVGDRVSITCKASQDVNTAVAWCQQKPGQSPKLLIYSASYRFTGVPDRFTGSGSGTDFTFTISSVQAEDLAVYFCQQHYSTPYTFGGGTKLEIK

The assay concerns the target T1, SLAMF6. Kind of assay: SPR.
Regarding B1, the Kd – broadly, the equilibrium constant for the complex coming apart – came to 0.38 nM. That is a sub-nanomolar value.

In turn, B2 showed a Kd of 6 nM.

Regarding B3, the affinity, expressed as Kd, was 16 nM.

Molecule B4 came in with a dissociation constant Kd of 12 nM.

In turn, B5 displayed a dissociation constant Kd of 4.1 nM.
